From patent publication US20230303674A1 (BETH ISRAEL DEACONESS MEDICAL CENTER, published 2023) come the findings set out here.

Assay [1] concerns the target antibody G1 Fab fragment. Nature of the assay: Biacore competition: G1 Fab (50 nM) pre-incubated with competing peptide, flowed over human α-CGRP on SA chip. The source says:
(§1) Y axis represents percentage of binding blocked by the presence of the competing peptide compared with the binding in the absence of the competing peptide.
(§2) All these peptides are amidated at the C-terminus.
(In general: SPR reads the build-up and loss of mass on a sensor chip optically.)

The target of assay [2] is antibody G1 Fab fragment. The assay is described as follows: Biacore, 50 nM G1 Fab with 10 µM peptide, over human α-CGRP on chip.
Chain of antibody G1 Fab fragment (VH, as listed by the source, chain 1 of 2): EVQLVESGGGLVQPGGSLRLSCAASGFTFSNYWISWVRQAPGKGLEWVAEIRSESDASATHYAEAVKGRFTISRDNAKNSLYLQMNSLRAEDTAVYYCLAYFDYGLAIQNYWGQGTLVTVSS
Chain of antibody G1 Fab fragment (VL, as listed by the source, chain 2 of 2): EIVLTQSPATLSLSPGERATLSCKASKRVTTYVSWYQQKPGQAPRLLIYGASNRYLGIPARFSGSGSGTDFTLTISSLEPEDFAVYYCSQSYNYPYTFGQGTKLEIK
Source text: as §1, §2

Assay [3] has as its target antibody G1 Fab fragment. Nature of the assay: Biacore competition: G1 Fab (50 nM) pre-incubated 1 h with 10 µM competing peptide, flowed over N-biotinylated human α-CGRP on SA chip.
Source text: as §1, §2

Ends that are not written are not given here.

For ACDTATCVTHRLA-OH (ends and bridges not checked, not amidated) [human α-CGRP 1-13-COOH], the binding result in the assay with antibody G1 Fab fragment [1] is listed as “no binding (tested: 10 µM)”.

B1: human α-CGRP 1-36-COOH (peptide)
peptide: ACDTATCVTHRLAGLLSRSGGVVKNNFVPTNVGSKA-OH
modifications: ends and bridges not checked
notes: free C-terminal carboxyl, not amidated; also called 1-36 (not amidated at the C-terminus)
In the case of B1, the “% of binding blocked” value with antibody G1 Fab fragment [2] was about 40%. The “% Binding Blocked” value with antibody G1 Fab fragment [3] was determined as 40.6%.

B2: human α-CGRP 19-37-COOH (peptide)
peptide: SGGVVKNNFVPTNVGSKAF-OH
notes: free C-terminal carboxyl, not amidated; also called 19-37 (not amidated at the C-terminus)
For B2, in the assay with antibody G1 Fab fragment [3], the “% Binding Blocked” value was found to be 83.3%.

On to ACDTATCVTHRLAGLLSRS-OH (ends and bridges not checked, not amidated) [human α-CGRP 1-19-COOH], for which, in the assay with antibody G1 Fab fragment [1], the binding result is on record as “no binding (tested: 10 µM)”.
